From patent publication US20210079074A1 come the findings set out here.

Sequences and labels used below:
B1: anti-MS4A4A antibody 4A-21 (antibody, V domains shown)
VH: QIQLVQSGPELKKPGETVKISCKASGYIFTSYGLSWVKQTPGKGLKWMGWINTYSGVPTYANDFKGRFAFSLETSASTTYLRINNLKNDDTATYFCARSLVDYWGQGTPLTVSS
VL: not shown
B2: anti-MS4A4A antibody 4A-357 (antibody, V domains shown)
VH: QVQLVQSGSELKKPGASVKVSCKASGYIFTSYGLSWVRQAPGQGLEWMGWINTYSGVPTYAQGFTGRFVFSLDTSVSTAYLQISSLKAEDTAVYYCARTLADYWGQGTLVTVSS
VL: DVVMTQSPLSLPVTLGQPASISCKSSQSLLYSDGKTYLSWFQQRPGQSPRRLIYEVSKLDSGVPDRFSGSGSGTDFTLKISRVEAEDVGVYYCWQGIDFHQTFGGGTKVEIK
B3: anti-MS4A4A antibody 4A-366 (antibody, V domains shown)
VH: QVQLVQSGSELKKPGASVKVSCKASGYTFTSYGLSWIRQAPGQGLEWMGWINTYSGVPTYAQGFTGRFVFSLDTSVSTAYLQISSLKAEDTAVYYCARTMVDYWGQGTLVTVSS
VL: DVVMTQSPLSLPVTLGQPASISCKSSRSLLYSDGKTYLSWFQQRPGQSPRRLIYLVSKLDSGVPDRFSGSGSGTDFTLKISRVEAEDVGVYYCWQGIDFHQTFGGGTKVEIK
B4: anti-MS4A4A antibody 4A-361 (antibody, V domains shown)
VH: QVQLVQSGSELKKPGASVKVSCKASGYIFTSYGLSWVRQAPGQGLEWMGWINTYSGVPTYAQGFTGRFVFSLDTSVSTAYLQISSLKAEDTAVYYCARTLADYWGQGTLVTVSS
VL: DVVMTQSPLSLPVTLGQPASISCKSSQSLLYSDGKTYLSWFQQRPGQSPRRLIYLVSKLESGVPDRFSGSGSGTDFTLKISRVEAEDVGVYYCWQGIDFHQTFGGGTKVEIK
B5: anti-MS4A4A antibody 4A-367 (antibody, V domains shown)
VH: QVQLVQSGSELKKPGASVKVSCKASGYTFTSYGLSWIRQAPGQGLEWMGWINTYSGVPTYAQGFTGRFVFSLDTSVSTAYLQISSLKAEDTAVYYCARTMVDYWGQGTLVTVSS
VL: DVVMTQSPLSLPVTLGQPASISCKSSQSLLYSDGKTYLSWFQQRPGQSPRRLIYLVSKLDSGVPDRFSGSGSGTDFTLKISRVEAEDVGVYYCWQGIDFHQTFGGGTKVEIK
B6: anti-MS4A4A antibody 4A-364 (antibody, V domains shown)
VH: QVQLVQSGSELKKPGASVKVSCKASGYTFTSYGLSWIRQAPGQGLEWMGWINTYSGVPTYAQGFTGRFVFSLDTSVSTAYLQISSLKAEDTAVYYCARTMVDYWGQGTLVTVSS
VL: DVVMTQSPLSLPVTLGQPASISCKASQSLLYSDGKTYLSWFQQRPGQSPRRLIYLVSKLDSGVPDRFSGSGSGADFTLKISRVEAEDVGVYYCWQGIDFHQTFGGGTKVEIK
B7: anti-MS4A4A antibody 4A-368 (antibody, V domains shown)
VH: QVQLVQSGSELKKPGASVKVSCKASGYTFTSYGLSWIRQAPGQGLEWMGWINTYSGVPTYAQGFTGRFVFSLDTSVSTAYLQISSLKAEDTAVYYCARTMVDYWGQGTLVTVSS
VL: DVVMTQSPLSLPVTLGQPASISCKSSQSLLYSDGKTYLSWFQQRPGQSPRRLIYLVSKLESGVPDRFSGSGSGTDFTLKISRVEAEDVGVYYCWQGIDFHQTFGGGTKVEIK
B8: anti-MS4A4A antibody 4A-370 (antibody, V domains shown)
VH: QVQLVQSGSELKKPGASVKVSCKASGYIFTSYGLSWVRQAPGQGLEWMGWINTYSGVPTYAQGFTGRFVFSLDTSVSTAYLQISSLKAEDTAVYYCARTLGDYWGQGTLVTVSS
VL: DVVMTQSPLSLPVTLGQPASISCKSGQSLLYSDGKTYLSWFQQRPGQSPRRLIYLVSRLDSGVPDRFSGSGSGTDFTLKISRVEAEDVGVYYCWQGIDFHQTFGGGTKVEIK
B9: anti-MS4A4A antibody 4A-365 (antibody, V domains shown)
VH: QVQLVQSGSELKKPGASVKVSCKASGYTFTSYGLSWIRQAPGQGLEWMGWINTYSGVPTYAQGFTGRFVFSLDTSVSTAYLQISSLKAEDTAVYYCARTMVDYWGQGTLVTVSS
VL: DVVMTQSPLSLPVTLGQPASISCKSSQSLLYSDGKTYLSWFQQRPGQSPRRLIYLVSKLSSGVPDRFSGSGSGTDFTLKISRVEAEDVGVYYCWQGIDFHQTFGGGTKVEIK
B10: anti-MS4A4A antibody 4A-359 (antibody, V domains shown)
VH: QVQLVQSGSELKKPGASVKVSCKASGYIFTSYGLSWVRQAPGQGLEWMGWINTYSGVPTYAQGFTGRFVFSLDTSVSTAYLQISSLKAEDTAVYYCARTLADYWGQGTLVTVSS
VL: DVVMTQSPLSLPVTLGQPASISCKASQSLLYSDGKTYLSWFQQRPGQSPRRLIYLVSKLDSGVPDRFSGSGSGADFTLKISRVEAEDVGVYYCWQGIDFHQTFGGGTKVEIK
B11: anti-MS4A4A antibody 4A-372 (antibody, V domains shown)
VH: QVQLVQSGSELKKPGASVKVSCKASGYIFTSYGLSWVRQAPGQGLEWMGWINTYSGVPTYAQGFTGRFVFSLDTSVSTAYLQISSLKAEDTAVYYCARTLGDYWGQGTLVTVSS
VL: DVVMTQSPLSLPVTLGQPASISCKSSQSLLYSDGKTYLSWFQQRPGQSPRRLIYLVSRLDSGVPDRFSGSGSGTDFTLKISRVEAEDVGVYYCWQGIDFHQTFGGGTKVEIK
B12: anti-MS4A4A antibody 4A-375 (antibody, V domains shown)
VH: QVQLVQSGSELKKPGASVKVSCKASGYIFTSYGLSWVRQAPGQGLEWMGWINTYSGVPTYAQGFTGRFVFSLDTSVSTAYLQISSLKAEDTAVYYCARSLADYWGQGTLVTVSS
VL: DVVMTQSPLSLPVTLGQPASISCKSSRSLLYSDGKTYLSWFQQRPGQSPRRLIYLVSKLDSGVPDRFSGSGSGTDFTLKISRVEAEDVGVYYCWQGIDFHQTFGGGTKVEIK
B13: anti-MS4A4A antibody 4A-371 (antibody, V domains shown)
VH: QVQLVQSGSELKKPGASVKVSCKASGYIFTSYGLSWVRQAPGQGLEWMGWINTYSGVPTYAQGFTGRFVFSLDTSVSTAYLQISSLKAEDTAVYYCARTLGDYWGQGTLVTVSS
VL: DVVMTQSPLSLPVTLGQPASISCKSSQSLLYSDGKTYLSWFQQRPGQSPRRLIYLVSKLDSGVPDRFSGSGSGTDFTLKISRVEAEDVGVYYCWQGIDFHQTFGGGTKVEIK
B14: anti-MS4A4A antibody 4A-374 (antibody, V domains shown)
VH: QVQLVQSGSELKKPGASVKVSCKASGYIFTSYGLSWVRQAPGQGLEWMGWINTYSGVPTYAQGFAGRFVFSLDTSVSTAYLQISSLKAEDTAVYYCARTLVDYWGQGTLVTVSS
VL: DVVMTQSPLSLPVTLGQPASISCKSSRSLLYSDGKTYLSWFQQRPGQSPRRLIYLVSKLDSGVPDRFSGSGSGTDFTLKISRVEAEDVGVYYCWQGIDFHQTFGGGTKVEIK
B15: anti-MS4A4A antibody 4A-363 (antibody, V domains shown)
VH: QVQLVQSGSELKKPGASVKVSCKASGYIFTSYGLSWVRQAPGQGLEWMGWINTYSGVPTYAQGFTGRFVFSLDTSVSTAYLQISSLKAEDTAVYYCARTLADYWGQGTLVTVSS
VL: DVVMTQSPLSLPVTLGQPASISCKSSQSLLYSDGKTYLSWFQQRPGQSPRRLIYLVSKLSSGVPDRFSGSGSGTDFTLKISRVEAEDVGVYYCWQGIDFHQTFGGGTKVEIK

In one experiment the target is human MS4A4A (human), Q96JQ5. Kind of experiment: FACS, U937-huMS4A4A, 5 ug/ml. Conditions: remark: other sources report otherwise. Background: A flow cytometer gives signals particle by particle.
The molecule B1 yielded an MFI of 18800.

For another experiment, the target named is recombinant MS4A4A soluble polypeptide JS5. Kind of experiment: ELISA, 0.4 ug/ml antibody.
Conditions: not given
For orientation: ELISA stands for enzyme-linked immunosorbent assay.
On to B2, for which the OD450 came out at 0.892.

As to B3, the OD450 worked out at 0.875.

Consider B4, for which the OD450 worked out at 0.79.

For B5, the OD450 was found to be 0.961.

B6: the OD450 was determined as 0.959.

With B7, the OD450 turned out to be 0.901.

In the case of B8, the OD450 was found to be 0.822.

For the molecule B9, the OD450 amounted to 0.845.

With B10, the OD450 worked out at 0.892.

For the molecule B11, the OD450 came to 0.873.

For the molecule B12, the OD450 stood at 0.996.

For B13, the OD450 stood at 0.955.

As for B14, the OD450 amounted to 0.833.

As to B15, the OD450 is 0.833.

For a further experiment, the target named is human MS4A4A (human), Q96JQ5. Kind of experiment: FACS, U937-huMS4A4A, 5 ug/ml. To be noted: remark: other sources report otherwise. The source holds these as a separate data set.
As to B1, the MFI was determined as 670.
